Reference: the nanobody polyreactivity screen of Harvey et al. (2022)

test: yeast display, Sf9 membrane polyspecificity reagent, FACS + sequencing; frameworks hold sequencing errors
Summary of the method: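 In a synthetic yeast display library (Saccharomyces cerevisiae BJ5465), nanobody expression was induced with galactose for 36–48 hours. FACS gates were set low and high (top ~1%) using anti-HA fluorescence for expression and streptavidin fluorescence for binding of the Sf9 membrane reagent. Each polyreactivity label is drawn from the gate of origin.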

Sequence | polyreactivity (PSR sort gate)
QVQIVESGGGLVQAGGSLRLSCADSGGTFRRYAMGWYRQAPGKEREFVARIYDGGTTYYADSVKGRFTISRDNAKNTVYLQMNSLKPEDTAVYYCAAYPYSRYYYYSNYYWGQGTQVTVSS | high polyreactivity
QVQIVESGGGLVQAGGSLRLSCDASGSTFVRYAMGWYRQAHGKERELVAAISYRGGSTYYADSVKGRFTISRDNAKNTVYLQMNSLKPEDTAVYYCAAESRHVEGEYWGQGTQVTVSS | high polyreactivity
QVQIVESGGGLVQAGGSLRLSCSASGRIFVGNAMGWYRQAPGKERELVAAISQRGGSTYYADSVKGRFTISRDYAKNTVYFQMNSRKQDVTAVYSCNAACRRAATSIWSWYDHWGQGTQETVSS | low polyreactivity
QVQIVESGGGLVQAGGSLRLSFAASGSIFSYNSMGWYRQAPGRERELVAAITPGCTSYYADSVKGLFRISRDNAKNTVYIQMNSLTPEDTAVYYCAADGLSRDTLYPYDYWGQGSQVTVSS | low polyreactivity
QVQIVESGGGLVQAGGSLSLSCAASGYNFYSYAMGWYRQAPGTKRELVAAITNSGGSTYYADSVKGRFTISRDNAKNTVYLQMNSLKPEDTAVYSCNASYWRAYSYKYDYWGQGTQVTVSS | high polyreactivity
QVQIVESGGGLVQAGGSRRLSCAASGIIFYVNVMGWYRQAPGKERELVASNDGSGDTTYYADSVKGRFTISRDNAKNTVYLQMNSLKPEDTAVYYCAADKYSFWSYYPDDDYIYDYWGQGNQVTVSS | low polyreactivity
QVQIVESGGGLVQEGGSLRISCAASGIIFRRYAMGWYRQAPGKERELVATITRSGSTNYAESVKGRFTISRDNAKNSVYLQMNSLKPEDTAVYYCNADDIRGGVGYDYWGQGTQVTVSS | high polyreactivity
QVQIVESGGGLVQEGGSLRLSCAASGFIFRRNAMGWYRQAPGKERELVAAISSRGGTTHYADSVKGRFTISRDNAKNTVYLQMNSLKPEDSSVYYCATTPQRGGLGGVDYWGQGTQVTVSS | high polyreactivity
QVQIVESGGGVVQAGGSLRLSCAASGYILDRNSMGWYRQAPGKERELVAVISWGGTRTYYADSVKGRFTISRDNAKNTVSLQMNSLKPVDTAVYYCNGKGWYYKYDYWGQGTQVTVSS | high polyreactivity
QVQIVESGGRLVQAGGSLRLSCAASGNIFRYNAMGWYRQAPGKERELVAAITLSGGDTYYADSVKGRFTISRDNAKNIVYLQMNSLKPEDTAVYYCAKDPRSDYTDGMNYWGQGTQLTVSS | low polyreactivity
QVQIVESGGVLVQAGGSIRLSCDASGSLFTIYAMGCYRQAPGKERELVAAITWSGGSTYYADSVKGRYTISRDNAKNTVNLQMNSLKPEDTAVYYCAADAYTGDIPYWWPWNNEYDYWGQGTQVTLSS | low polyreactivity
QVQIVESGRGLVQAGGSLRLSCAPSGFNIPTNGMGWYRQATGKEREFVASITWRGGGTYYAESVKGRFTISRDNAKNTVFLQMNSLKPEDTAVYYCAAGRSWSSYWKYDYWGLGTQVTVSS | low polyreactivity
QVQIVESGRGLVQAGGSLRVSCAASGRTFTYNAMGWYRQAPGKERELVAAINGDGGSTYYADSVKVRFTISRDNAKNTVYLQMNSLKPEDTAVYYCNRPRIYRYGYWGQGTQVTVSS | high polyreactivity
QVQIVESRGGLVQAGGSLRLSCSASGRTFTYYAMGWYRQAPGKERELVASITSGGSTYADSVKGRFTISRDNAMNTVYLQMNSLKPEDTAVYYCAARAWGYRYKYYWGQGTLVTVSS | high polyreactivity
QVQIVESVGCLVQARGSLRLSSAASGFILVINAMGWYRQAPGKERELVAAINGGDITNYADSVKGRFTFSRDNAKNNVYLQMNSLKPEDTAVYYCSADGEDSLWTGYDYDYWGLGTQVTVSS | low polyreactivity
QVQIVESVGGLVQAGGSLRLSCAASGSTFSGYAKGWYRQAPGKERELVAAISWRGVRTYYADSVKGRFTISRDNAKNTVYLQMNSLKPEDTAVYYCAAVRYIPKEFYWGQGTQVTVSS | high polyreactivity
QVQIVESWGGLVQAGGSLRVSCATSGGIFRFNAMGSYRHAPGKERELVAAITSSVGSTYYADSVKGRFTFSRDNAKNTVDLQLNSLKPEDTAVDDCAAVITRVAIVFSTEYDYWGQGTQVTVSS | low polyreactivity
QVQIVETGGVLVQAGGSLRLSFADAGLTIYIYAMGWYRQAPGKETELFPAISWIGDSTYYADSVKGLFTISRDNAKNTVYLQLNSLKPEDTAVYYCAADSWRYVAEGLWREYDYWGQGTQVTVSS | low polyreactivity
QVQLAESGGGLVQAGGSLRLSCAASGIIFVYNAMGWYIKAPGKERELVAVISFIGDSTYYADSVKGRFTISRDNAKNTVYLQMNSLKPEDTAVYYCAADYYMPYWFFVGYDYWGQGTQVTVSS | low polyreactivity
QVQLAESGGGLVQAGGSLRLSCAASGRTFSQYGMGWYRQAPGKERELVARIRRSGGSTYYADSVKGRFTISRDNAKNTVYLQMNSLKPEDTAVYYCAARYYWFGQYQYNYWGQGTQVTVSS | high polyreactivity
QVQLAESGGGLVQAGGSLRLSCAASGRTFSQYGMGWYRQAPGKERELVARIRRSGGSTYYADSVKGRFTISRDNAKNTVYLQMNSLKPEDTAVYYCNADGQPYTRYGYWGQGTRVTVSS | high polyreactivity
QVQLAESGGGLVQAGGSLRLSCGASGSTFVAYALGWYRQAPGKEREFVAAISRSGGSTHYADSVKGRFTISRDNAKNTVYLQMNRLNPEDTAVYYCAARVYGYGGRTYEYWGQGTQVTVSS | high polyreactivity

Sequence | polyreactivity (PSR sort gate)
QVQLDESGGGLVQAGGSHRLSCAASGYIFGYYAMGWSRQAPGKERELVAAISKSGTDTYYADSVKGRFTISRDYAKNTVFLQMNSLKPEDTAVYYCNALLRGYSYGYDYWGQGTQVTVSS | high polyreactivity
QVQLEDSGGGLVQAGGSLRLICAASGSILNYKAMGWYRHAPGKERELVAGIRSSGGSTYYADSVKGRFTISRDNAKNTVYLKMNSLKPEDTAVYDWAKRTYWRRGWGFDFWGQGTQVTVSS | high polyreactivity
QVQLEDSGGGLVQAGGSLRLSCAASGFIFRGYGMGWYRQAPGKERELLASITTGGRTNYADSVKGRFTISRDNAKNTVYLQMNCLKPEDTAVYYCAATYYLRLRRPYWQGFNYWGQGTQVTVSS | high polyreactivity
QVQLEDSGGGLVQAGGSLRLSCAASGRTFVFKAMGWYRPAPGKERELVAAITISGGSTYYADSVKGRFTISRDNAKNTVYLQMNSLKPEDTAVYSCNADSKIEVFSYIYDYWGQGTQVTVSS | high polyreactivity
QVQLEDSGGGLVQAGGSLRLSCAASGSIFRRNFMGWNRQAPGKERELVAAISWSGDRTYYADSVKGRFTISRDNAKNTVYLQMNSLKPEDTAVYYCNAVYWPYRYDYWGQGTQVTVSS | high polyreactivity
QVQLEDSGGGVVQAGGSLRLSCAASGSIYYPYAMGWNRQAPGKERELVARITSGGSTHYADSVKGRFTISRDNAKNTVYLQMNSLKPEETAVYYCNADYWFVESDYWGKGTQVTVSS | low polyreactivity
QVQLEESAGGIVQAGGSLRLSCAGSGSTVSVYAMGWYRQAPGKEWELVARIRWSSGITYYADSVNGRFTISRDNAKNTVYLQLNSVKPEDTAVYYCNAQYRRAYLWFLYDYWGQGTQVTVSS | high polyreactivity
QVQLEESAGGLVQAGGSLRLSCAASGSIFFFYAKGRYREAPGKERELVAAITGSGGSTYYADSVKGRFTISRVNAKNTVYLQMNSLKPEDTAVYDCAFRTSRQVYSYAGYESWGQGTHVTVSS | low polyreactivity
QVQLEESCGGLVQAGGRLRLSCAASGSIFRFNVMGWYRHAPGKERDLVAAITRGDSTNYADSVKGRFTISRDNAKITVYLQMNILIQDDSAVYYCAAGYYYYLRDHDYWGQGTQVTVSS | low polyreactivity
QVQLEESGAGLLQAGGSIRLSCAASGRTFWYYTMGWYRQAPGKEREVVAAISSGGRTNYADSVKGRFTISRDNAKNTVYLQMNSLKPEDTAVYDCAALYAKYYYRYDYWGQGTQVTVSS | high polyreactivity
QVQLEESGGCLVQAGGRIRLSCAASGLTFHRYAMGWYRQAPGKERELVAAINYSGGRTYYADSVKGRFTISRDNATNNVYLQMNSLKPEDTAVYYCAAPSASGYYWGQGNQVTVSS | high polyreactivity
QVQLEESGGCLVQAGGRIRLSCAASGSIFGYYAMGWYRQAPGKERELVADISYTGVSTYYADSVKGRFTISRDNAKNTVYLQMNSLKPEDTAVYYCAADWVYPDYSWYSYTDFDYWGQGTQVTVSS | low polyreactivity
QVQLEESGGCLVQAGGSLRLSCAASGSIFWYNAMGRSRQAPGKERELVAAISYSGDRTYYADSVKGRFTISRDNAKNTGYLLMNSLKPEVTAVYYCAKAGTCFYNSWWEDSWGQGTQVTLSS | low polyreactivity
QVQLEESGGGFVQAGGSLRLSCAASGFIFRRYAMGWYRQAPGKERELVAAISWRSGSTYYADSVKGRFTISRDNAKNTVYSPMKCLKPEDTAVYYCAAKDQATYQLYYWGQGTQVTVSS | high polyreactivity
QVQLEESGGGFVQAGGSLRLSCAPSGTTFKSNAMGWYRQAPGKERELVAAINSGTSTYYADSVKGRFTISRDNAKNTVYLQMNSLKPEDTAVYYCSADGIWGEYYYSELGDYDYWGLGTQVTVSS | low polyreactivity
QVQLEESGGGIVQAGGSLRLSCAASGITFYWYAMGWYRQAPGKERELVASITGNGGGTSYADSVKGRFTISRDNAKNTVYLQMNSLKPEDTAVYYCNTSVGVKDYVSWGQGTQVTLSS | low polyreactivity
QVQLEESGGGLDQAGGSLRLICAASGSIFPSYAMGWYRQAPGKERELVATIGRGGTTNYSDSVKGRFTISRDNAKITVYLLMNSLKPEDTAVYYCNADRIWRYKYGYDYWRQGTQVTVSS | high polyreactivity
QVQLEESGGGLDQAGGSLRLSCAASGRIFVFYAMGWYRQAPGKERELVAAITASSTRTYFADSVKGRFTISRDNAKNTVYLQMNSLKPEDTAVYYCAADRYYWGQGTQVTVSS | low polyreactivity
QVQLEESGGGLFQAGGSLRLSCAASGSTFVSNAMGWYRQAPGKDRELVAAISSSGGRTSYADSVKGRFTISRDNAKNTVYLQMNSLKPEDTAVYYCNRVSPGPDADLEFDYWGQGTQVTVSS | low polyreactivity
QVQLEESGGGLGQAGGSLRLSCAASGRIFRDYAMGWSRQAPGKERELVAAITSGGTTYADSVKGRVTISRDNAKNTVYLQLNSLKPEDTAVYYCNVAWIWGKFDYWGQGTQVTVSS | high polyreactivity
QVQLEESGGGLGQAGGSLRLTCAASGSIFRQYAMGWYRQAPGKERDLVATISRSGGSTYYADSVKGRFTISRDNAKNTVYLQLNSLKPEDTAVYYCAASRYNKSYREWWVGSWGQGTQVTVSS | high polyreactivity
